From article PMC10786891, “Massively parallel profiling of RNA-targeting CRISPR-Cas13d”

Molecular target: T1, EsCas13d, nuclease-dead (Eubacterium siraeum, UniProt B0MS50, R295A;H300A;R849A;H854A)
T1 sequence: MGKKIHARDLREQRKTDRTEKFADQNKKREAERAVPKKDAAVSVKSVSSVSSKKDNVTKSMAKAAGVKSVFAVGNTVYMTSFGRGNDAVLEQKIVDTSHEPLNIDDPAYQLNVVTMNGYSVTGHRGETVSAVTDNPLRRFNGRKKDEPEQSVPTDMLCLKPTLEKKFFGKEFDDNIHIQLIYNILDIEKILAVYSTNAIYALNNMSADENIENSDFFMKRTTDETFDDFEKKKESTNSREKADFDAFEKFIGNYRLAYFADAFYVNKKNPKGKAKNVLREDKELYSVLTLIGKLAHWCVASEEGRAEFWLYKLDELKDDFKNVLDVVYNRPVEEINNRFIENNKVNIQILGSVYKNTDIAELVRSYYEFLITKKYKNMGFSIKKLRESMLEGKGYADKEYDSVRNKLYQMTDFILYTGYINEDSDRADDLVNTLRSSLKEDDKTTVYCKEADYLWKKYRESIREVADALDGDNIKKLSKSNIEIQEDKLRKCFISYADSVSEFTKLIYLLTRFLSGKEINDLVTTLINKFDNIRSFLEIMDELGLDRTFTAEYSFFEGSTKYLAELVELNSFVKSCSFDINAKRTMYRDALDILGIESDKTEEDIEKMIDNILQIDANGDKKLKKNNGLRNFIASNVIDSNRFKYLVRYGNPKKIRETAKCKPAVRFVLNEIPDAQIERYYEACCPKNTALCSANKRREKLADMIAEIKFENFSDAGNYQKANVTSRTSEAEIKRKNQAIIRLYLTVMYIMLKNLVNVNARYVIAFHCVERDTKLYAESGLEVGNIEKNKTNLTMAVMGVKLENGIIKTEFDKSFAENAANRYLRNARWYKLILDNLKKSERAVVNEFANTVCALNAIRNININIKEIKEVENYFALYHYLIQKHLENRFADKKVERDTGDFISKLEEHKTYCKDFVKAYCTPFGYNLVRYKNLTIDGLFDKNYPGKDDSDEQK
Assay: crRNA (strand 1, pre-loaded); Mg2+; 40 mM Tris-HCl pH 7.5, 150 mM NaCl, 6 mM MgCl2, 1 mM DTT, 0.1% Tween-20, 0.2 mg/ml BSA; 25 C; 10 min per concentration, then washed
Conditions: tags: His6-TwinStrep-SUMO cleaved; N-terminal SNAP kept (SNAP-Surface 488); label: 3' end held by stalled T7 RNA polymerase

B1: target 1 insU 3' of 20,insA 3' of 4 (mixed)
RNA 1: CACCCGUGCAAAAAUGCAGGGGUCUAAAACUGAGCGGAUAACCUCUCUAUGG
RNA 2: GGGAAUGGAUCCACAUCUACGAAUUCGUACCAUUAGAGAGGUUAUCCGCAUCACCGAGAUCGGAAGAGCACACGU
  Kd: 0.0086 ± 0.0007 µM

B2: target 1 insC 3' of 18,insC 3' of 1 (mixed)
RNA 1: CACCCGUGCAAAAAUGCAGGGGUCUAAAACUGAGCGGAUAACCUCUCUAUGG
RNA 2: GGGAAUGGAUCCACAUCUACGAAUUCGUACCAUACGAGAGGUUAUCCGCUCACCCGAGAUCGGAAGAGCACACGU
  Kd: 0.029 ± 0.005 µM

B3: target 1 C2A,C6G (mixed)
RNA 1: CACCCGUGCAAAAAUGCAGGGGUCUAAAACUGAGCGGAUAACCUCUCUAUGG
RNA 2: GGGAAUGGAUCCACAUCUACGAAUUCGUACCAUAGAGAGGUUAUCGGCUAACCGAGAUCGGAAGAGCACACGU
  Kd: 0.00603 ± 0.00034 µM

B4: target 3 C1G,U7G (mixed)
RNA 1: CACCCGUGCAAAAUUGCAGGGGUCUAAAACGACCUGAAUAUUUCAGAUCAAA
RNA 2: GGGAAUGGAUCCACAUCUACGAAUUCGUUUUUGAUCUGAAAUAUGCAGGUGUGCAGAUCGGAAGAGCACACGU
  Kd: 0.029 ± 0.00565 µM

B5: target 3 G3C,C6G (mixed)
RNA 1: CACCCGUGCAAAAUUGCAGGGGUCUAAAACGACCUGAAUAUUUCAGAUCAAA
RNA 2: GGGAAUGGAUCCACAUCUACGAAUUCGUUUUUGAUCUGAAAUAUUGAGCUCUGCAGAUCGGAAGAGCACACGU
  Kd: 0.0342 ± 0.0047 µM

B6: target 3 U7G,U8A (mixed)
RNA 1: CACCCGUGCAAAAUUGCAGGGGUCUAAAACGACCUGAAUAUUUCAGAUCAAA
RNA 2: GGGAAUGGAUCCACAUCUACGAAUUCGUUUUUGAUCUGAAAUAAGCAGGUCUGCAGAUCGGAAGAGCACACGU
  Kd: 0.067 ± 0.012 µM

B7: target 3 A9G (mixed)
RNA 1: CACCCGUGCAAAAUUGCAGGGGUCUAAAACGACCUGAAUAUUUCAGAUCAAA
RNA 2: GGGAAUGGAUCCACAUCUACGAAUUCGUUUUUGAUCUGAAAUGUUCAGGUCUGCAGAUCGGAAGAGCACACGU
  Kd: 0.0291 ± 0.00285 µM

B8: target 3 A5U,C6G (mixed)
RNA 1: CACCCGUGCAAAAUUGCAGGGGUCUAAAACGACCUGAAUAUUUCAGAUCAAA
RNA 2: GGGAAUGGAUCCACAUCUACGAAUUCGUUUUUGAUCUGAAAUAUUGUGGUCUGCAGAUCGGAAGAGCACACGU
  Kd: 0.039 ± 0.0045 µM

B9: target 3 insA 3' of 3,insG 3' of 1 (mixed)
RNA 1: CACCCGUGCAAAAUUGCAGGGGUCUAAAACGACCUGAAUAUUUCAGAUCAAA
RNA 2: GGGAAUGGAUCCACAUCUACGAAUUCGUUUUUGAUCUGAAAUAUUCAGGAUCGUGCAGAUCGGAAGAGCACACGU
  Kd: 0.052 ± 0.011 µM

B10: target 3 G4U,A18G (mixed)
RNA 1: CACCCGUGCAAAAUUGCAGGGGUCUAAAACGACCUGAAUAUUUCAGAUCAAA
RNA 2: GGGAAUGGAUCCACAUCUACGAAUUCGUUUUUGGUCUGAAAUAUUCAUGUCUGCAGAUCGGAAGAGCACACGU
  Kd: 0.00975 ± 0.00145 µM

B11: target 3 C1U,U7A (mixed)
RNA 1: CACCCGUGCAAAAUUGCAGGGGUCUAAAACGACCUGAAUAUUUCAGAUCAAA
RNA 2: GGGAAUGGAUCCACAUCUACGAAUUCGUUUUUGAUCUGAAAUAUACAGGUUUGCAGAUCGGAAGAGCACACGU
  Kd: 0.0365 ± 0.0155 µM

B12: target 3 insU 3' of 4,insA 3' of 4 (mixed)
RNA 1: CACCCGUGCAAAAUUGCAGGGGUCUAAAACGACCUGAAUAUUUCAGAUCAAA
RNA 2: GGGAAUGGAUCCACAUCUACGAAUUCGUUUUUGAUCUGAAAUAUUCAGUAGUCUGCAGAUCGGAAGAGCACACGU
  Kd: 0.0229 ± 0.00325 µM

B13: target 3 U2A,G4A (mixed)
RNA 1: CACCCGUGCAAAAUUGCAGGGGUCUAAAACGACCUGAAUAUUUCAGAUCAAA
RNA 2: GGGAAUGGAUCCACAUCUACGAAUUCGUUUUUGAUCUGAAAUAUUCAAGACUGCAGAUCGGAAGAGCACACGU
  Kd: 0.00311 ± 0.00033 µM

B14: target 3 insA 3' of 21,insU 3' of 3 (mixed)
RNA 1: CACCCGUGCAAAAUUGCAGGGGUCUAAAACGACCUGAAUAUUUCAGAUCAAA
RNA 2: GGGAAUGGAUCCACAUCUACGAAUUCGUUUUAUGAUCUGAAAUAUUCAGGUUCUGCAGAUCGGAAGAGCACACGU
  Kd: 0.0463 ± 0.0137 µM

B15: target 3 U7A (mixed)
RNA 1: CACCCGUGCAAAAUUGCAGGGGUCUAAAACGACCUGAAUAUUUCAGAUCAAA
RNA 2: GGGAAUGGAUCCACAUCUACGAAUUCGUUUUUGAUCUGAAAUAUACAGGUCUGCAGAUCGGAAGAGCACACGU
  Kd: 0.0278 ± 0.0036 µM

B16: target 3 insU 3' of 6,insU 3' of 3 (mixed)
RNA 1: CACCCGUGCAAAAUUGCAGGGGUCUAAAACGACCUGAAUAUUUCAGAUCAAA
RNA 2: GGGAAUGGAUCCACAUCUACGAAUUCGUUUUUGAUCUGAAAUAUUCUAGGUUCUGCAGAUCGGAAGAGCACACGU
  Kd: 0.0129 ± 0.002 µM

B17: target 3 insC 3' of 9,insC 3' of 4 (mixed)
RNA 1: CACCCGUGCAAAAUUGCAGGGGUCUAAAACGACCUGAAUAUUUCAGAUCAAA
RNA 2: GGGAAUGGAUCCACAUCUACGAAUUCGUUUUUGAUCUGAAAUACUUCAGCGUCUGCAGAUCGGAAGAGCACACGU
  Kd: 0.0875 ± 0.028 µM

B18: target 3 insU 3' of 22,insU 3' of 5 (mixed)
RNA 1: CACCCGUGCAAAAUUGCAGGGGUCUAAAACGACCUGAAUAUUUCAGAUCAAA
RNA 2: GGGAAUGGAUCCACAUCUACGAAUUCGUUUUUUGAUCUGAAAUAUUCAUGGUCUGCAGAUCGGAAGAGCACACGU
  Kd: 0.00645 ± 0.00055 µM

B19: target 3 insA 3' of 8,insU 3' of 3 (mixed)
RNA 1: CACCCGUGCAAAAUUGCAGGGGUCUAAAACGACCUGAAUAUUUCAGAUCAAA
RNA 2: GGGAAUGGAUCCACAUCUACGAAUUCGUUUUUGAUCUGAAAUAUAUCAGGUUCUGCAGAUCGGAAGAGCACACGU
  Kd: 0.07 ± 0.02 µM

B20: target 3 C6A,U7C (mixed)
RNA 1: CACCCGUGCAAAAUUGCAGGGGUCUAAAACGACCUGAAUAUUUCAGAUCAAA
RNA 2: GGGAAUGGAUCCACAUCUACGAAUUCGUUUUUGAUCUGAAAUAUCAAGGUCUGCAGAUCGGAAGAGCACACGU
  Kd: 0.069 ± 0.0095 µM

B21: target 3 del2,del5 (mixed)
RNA 1: CACCCGUGCAAAAUUGCAGGGGUCUAAAACGACCUGAAUAUUUCAGAUCAAA
RNA 2: GGGAAUGGAUCCACAUCUACGAAUUCGUUUUUGAUCUGAAAUAUUCGGCUGCAGAUCGGAAGAGCACACGU
  Kd: 0.00535 ± 0.00045 µM

B22: target 3 insA 3' of 21,insC 3' of 4 (mixed)
RNA 1: CACCCGUGCAAAAUUGCAGGGGUCUAAAACGACCUGAAUAUUUCAGAUCAAA
RNA 2: GGGAAUGGAUCCACAUCUACGAAUUCGUUUUAUGAUCUGAAAUAUUCAGCGUCUGCAGAUCGGAAGAGCACACGU
  Kd: 0.0505 ± 0.0155 µM

B23: target 3 G4C (mixed)
RNA 1: CACCCGUGCAAAAUUGCAGGGGUCUAAAACGACCUGAAUAUUUCAGAUCAAA
RNA 2: GGGAAUGGAUCCACAUCUACGAAUUCGUUUUUGAUCUGAAAUAUUCACGUCUGCAGAUCGGAAGAGCACACGU
  Kd: 0.0106 ± 0.001 µM

B24: target 3 G19U,U20G (mixed)
RNA 1: CACCCGUGCAAAAUUGCAGGGGUCUAAAACGACCUGAAUAUUUCAGAUCAAA
RNA 2: GGGAAUGGAUCCACAUCUACGAAUUCGUUUUGUAUCUGAAAUAUUCAGGUCUGCAGAUCGGAAGAGCACACGU
  Kd: 0.0335 ± 0.007 µM

B25: target 3 C6U,A13G (mixed)
RNA 1: CACCCGUGCAAAAUUGCAGGGGUCUAAAACGACCUGAAUAUUUCAGAUCAAA
RNA 2: GGGAAUGGAUCCACAUCUACGAAUUCGUUUUUGAUCUGGAAUAUUUAGGUCUGCAGAUCGGAAGAGCACACGU
  Kd: 0.034 ± 0.006 µM

B26: target 3 C1G,U7A (mixed)
RNA 1: CACCCGUGCAAAAUUGCAGGGGUCUAAAACGACCUGAAUAUUUCAGAUCAAA
RNA 2: GGGAAUGGAUCCACAUCUACGAAUUCGUUUUUGAUCUGAAAUAUACAGGUGUGCAGAUCGGAAGAGCACACGU
  Kd: 0.0153 ± 0.0041 µM

B27: target 3 insC 3' of 5,insC 3' of 2 (mixed)
RNA 1: CACCCGUGCAAAAUUGCAGGGGUCUAAAACGACCUGAAUAUUUCAGAUCAAA
RNA 2: GGGAAUGGAUCCACAUCUACGAAUUCGUUUUUGAUCUGAAAUAUUCACGGUCCUGCAGAUCGGAAGAGCACACGU
  Kd: 0.0099 ± 0.00135 µM

B28: target 3 insU 3' of 22,insA 3' of 3 (mixed)
RNA 1: CACCCGUGCAAAAUUGCAGGGGUCUAAAACGACCUGAAUAUUUCAGAUCAAA
RNA 2: GGGAAUGGAUCCACAUCUACGAAUUCGUUUUUUGAUCUGAAAUAUUCAGGAUCUGCAGAUCGGAAGAGCACACGU
  Kd: 0.0221 ± 0.0024 µM
